Results taken from publication PMC6615629, “Hsp70-nucleotide exchange factor (NEF) Fes1 has non-NEF roles in degradation of gluconeogenic enzymes and cell wall integrity” (PLoS Genetics, 2019).
Changes are numbered by the printed parent chain. Numbers in names are those of the source.

B1: His6-Fbp1ΔP2 (enzyme, yeast (S. cerevisiae), UniProt P09201 1-348, looked up)
chain: MTLVNGPRRDSTEGFDTDIITLPRFIIEHQKQFKNATGDFTLVLNALQFAFKFVSHTIRRAELVNLVGLAGASNFTGDQQKKLDVLGDEIFINAMRASGIIKVLVSEEQEDLIVFPTNTGSYAVCCDPIDGSSNLDAGVSVGTIASIFRLLPDSSGTINDVLRCGKEMVAACYAMYGSSTHLVLTLGDGVDGFTLDTNLGEFILTHPNLRIPPQKAIYSINEGNTLYWNETIRTFIEKVKQPQADNNNKPFSARYVGSMVADVHRTFLYGGLFAYPCDKKSPNGKLRLLYEAFPMAFLMEQAGGKAVNDRGERILDLVPSHIHDKSSIWLGSSGEIDKFLDHIGKSQ
notes: Fbp1, yeast gluconeogenic enzyme, proline 2 deleted; the initiator methionine is counted as residue 1; also called Fbp1P2Δ; source: E. coli expression, purified; not shown: His6, N-terminal, kept
B2: GST-Fes1^A79R,R195A (natural protein, yeast (S. cerevisiae), UniProt P38260 1-290, looked up)
chain: MEKLLQWSIANSQGDKEAMARAGQPDPKLLQQLFGGGGPDDPTLMKESMAVIMNPEVDLETKLVAFDNFEMLIENLDNRNNIENLKLWEPLLDVLVQTKDEELRAAALSIIGTAVQNNLDSQNNFMKYDNGLRSLIEIASDKTKPLDVRTKAFYALSNLIRNHKDISEKFFKLNGLDCIAPVLSDNTAKPKLKMAAIALLTAYLSSVKIDENIISVLRKDGVIESTIECLSDESNLNIIDRVLSFLSHLISSGIKFNEQELHKLNEGYKHIEPLKDRLNEDDYLAVKYVL
notes: Fes1, yeast Hsp70 nucleotide exchange factor, double mutant A79R,R195A; also called Fes1RA; RA; source: E. coli expression, purified; not shown: GST, N-terminal, kept
B3: His6-Fbp1 P2A (enzyme, yeast (S. cerevisiae), UniProt P09201 1-348, looked up)
chain: MATLVNGPRRDSTEGFDTDIITLPRFIIEHQKQFKNATGDFTLVLNALQFAFKFVSHTIRRAELVNLVGLAGASNFTGDQQKKLDVLGDEIFINAMRASGIIKVLVSEEQEDLIVFPTNTGSYAVCCDPIDGSSNLDAGVSVGTIASIFRLLPDSSGTINDVLRCGKEMVAACYAMYGSSTHLVLTLGDGVDGFTLDTNLGEFILTHPNLRIPPQKAIYSINEGNTLYWNETIRTFIEKVKQPQADNNNKPFSARYVGSMVADVHRTFLYGGLFAYPCDKKSPNGKLRLLYEAFPMAFLMEQAGGKAVNDRGERILDLVPSHIHDKSSIWLGSSGEIDKFLDHIGKSQ
notes: Fbp1, yeast gluconeogenic enzyme, P2A; the initiator methionine is counted as residue 1; source: E. coli expression, purified; not shown: His6, N-terminal, kept
B4: His6-Fbp1^P2A,S12A,T13A (enzyme, yeast (S. cerevisiae), UniProt P09201 1-348, looked up)
chain: B3 chain with S12A, T13A
notes: Fbp1, yeast gluconeogenic enzyme, P2A,S12A,T13A; the initiator methionine is counted as residue 1; source: E. coli expression, purified; not shown: His6, N-terminal, kept
B5: His6-Fbp1 (enzyme, yeast (S. cerevisiae), UniProt P09201 1-348, looked up)
chain: B3 chain with A2P
notes: Fbp1, yeast gluconeogenic enzyme; the initiator methionine is present in the purified protein and is counted as residue 1; also called wild type His6-Fbp1; not shown: His6, N-terminal, kept

Experiments:
Assay in all cases: pull-down; His6-Fbp1 (wild type or mutant) pulled down on Talon metal affinity resin; reactions with two or all three proteins; 6 μg each of His6-Fbp1 (1.6 μM), Hsp70 (0.9 μM) and GST-Fes1 (1.09 μM), with or without ATP, ADP or AMP (2.5 mM); 50 mM Tris-HCl pH 7.5, 150 mM NaCl, 2% glycerol, 5 mM MgCl2; 30 min at 4°C; washed with 5 mM imidazole, eluted with 250 mM imidazole; stained SDS-PAGE gels, bands quantified …
Settings in all cases: both partners purified
Ssa2 = target: T1, Ssa2 (yeast (S. cerevisiae), UniProt P10592 1-639)
T1 construct: Ssa2, yeast cytosolic Hsp70; non-tagged; also called Hsp70; source: E. coli Rosetta 2(DE3), purified as described [51]

Ssa1 = target: T2, Ssa1 (yeast (S. cerevisiae), UniProt P10591 1-642)
T2 construct: Ssa1, yeast cytosolic Hsp70; non-tagged; also called Hsp70; source: E. coli Rosetta 2(DE3), purified as described [51]

His6-Fbp1 = target: B5

T1 sequence (P10592 whole entry): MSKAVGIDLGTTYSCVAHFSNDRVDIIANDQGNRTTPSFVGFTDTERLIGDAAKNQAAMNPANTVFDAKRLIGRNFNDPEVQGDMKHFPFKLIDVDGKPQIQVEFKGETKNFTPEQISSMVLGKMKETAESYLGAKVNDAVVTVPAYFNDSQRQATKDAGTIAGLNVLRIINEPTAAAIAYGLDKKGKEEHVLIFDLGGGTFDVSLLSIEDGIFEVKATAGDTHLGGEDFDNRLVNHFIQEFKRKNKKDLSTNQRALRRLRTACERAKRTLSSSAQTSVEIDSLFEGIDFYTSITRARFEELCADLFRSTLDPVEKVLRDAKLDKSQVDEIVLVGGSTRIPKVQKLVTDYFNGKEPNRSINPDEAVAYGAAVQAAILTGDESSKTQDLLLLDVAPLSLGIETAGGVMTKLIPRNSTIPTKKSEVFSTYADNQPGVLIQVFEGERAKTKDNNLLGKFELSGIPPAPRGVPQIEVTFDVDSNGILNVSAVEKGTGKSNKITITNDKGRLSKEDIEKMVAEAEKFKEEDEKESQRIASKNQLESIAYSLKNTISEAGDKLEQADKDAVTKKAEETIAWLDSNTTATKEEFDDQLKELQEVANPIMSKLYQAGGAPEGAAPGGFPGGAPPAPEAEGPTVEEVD
T2 sequence (P10591 whole entry): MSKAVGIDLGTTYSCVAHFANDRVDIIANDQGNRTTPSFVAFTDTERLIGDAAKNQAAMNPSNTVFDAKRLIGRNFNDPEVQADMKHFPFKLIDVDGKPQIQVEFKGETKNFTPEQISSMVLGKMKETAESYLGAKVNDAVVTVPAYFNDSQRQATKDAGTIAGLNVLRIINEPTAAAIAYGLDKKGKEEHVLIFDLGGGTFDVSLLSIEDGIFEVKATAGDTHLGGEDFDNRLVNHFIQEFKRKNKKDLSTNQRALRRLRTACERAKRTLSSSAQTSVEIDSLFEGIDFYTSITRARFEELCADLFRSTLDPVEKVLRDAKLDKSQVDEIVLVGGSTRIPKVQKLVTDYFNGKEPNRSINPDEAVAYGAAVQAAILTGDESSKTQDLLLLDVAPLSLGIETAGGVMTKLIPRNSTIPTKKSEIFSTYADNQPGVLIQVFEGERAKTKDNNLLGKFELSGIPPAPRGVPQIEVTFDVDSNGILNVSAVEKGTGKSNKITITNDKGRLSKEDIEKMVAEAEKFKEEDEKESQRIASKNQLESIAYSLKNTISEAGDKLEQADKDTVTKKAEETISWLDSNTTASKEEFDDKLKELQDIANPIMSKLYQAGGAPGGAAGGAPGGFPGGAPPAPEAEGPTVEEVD

binding result (Ssa2)	binding result (Ssa1)	Binder	also measured
binds	binds	B1	
		B2	ratio of amounts Fes1^A79R,R195A/Ssa1 pulled down by Fbp1, no nucleotide (His6-Fbp1): 1.7; ratio of amounts Fes1^A79R,R195A/Ssa1 pulled down by Fbp1, with ADP (His6-Fbp1): 5; ratio of amounts Fes1^A79R,R195A/Ssa1 pulled down by Fbp1, with AMP (His6-Fbp1): 3.3; ratio of amounts Fes1^A79R,R195A/Ssa1 pulled down by Fbp1, with ATP (His6-Fbp1): 6.4; ratio of amounts Fes1^A79R,R195A/Ssa2 pulled down by Fbp1, no nucleotide (His6-Fbp1): 2.4; ratio of amounts Fes1^A79R,R195A/Ssa2 pulled down by Fbp1, with ADP (His6-Fbp1): 4.5; ratio of amounts Fes1^A79R,R195A/Ssa2 pulled down by Fbp1, with AMP (His6-Fbp1): 1.9; ratio of amounts Fes1^A79R,R195A/Ssa2 pulled down by Fbp1, with ATP (His6-Fbp1): 4.3
binds	binds	B3	
binds	binds	B4	
binds	binds	B5	
